The record followed here is PMC12752606, “METTL10‐Mediated PIAS3 Methylation Links Purine Metabolism to Gastric Cancer Progression” (Advanced Science, 2025).

In this test the target is T1, GST-PIAS3 (UniProt Q9Y6X2 1-628).
T1 construct: PIAS3; also called bacterially expressed PIAS3; source: E. coli BL21, purified (Glutathione Agarose Resin)
T1 sequence (looked up): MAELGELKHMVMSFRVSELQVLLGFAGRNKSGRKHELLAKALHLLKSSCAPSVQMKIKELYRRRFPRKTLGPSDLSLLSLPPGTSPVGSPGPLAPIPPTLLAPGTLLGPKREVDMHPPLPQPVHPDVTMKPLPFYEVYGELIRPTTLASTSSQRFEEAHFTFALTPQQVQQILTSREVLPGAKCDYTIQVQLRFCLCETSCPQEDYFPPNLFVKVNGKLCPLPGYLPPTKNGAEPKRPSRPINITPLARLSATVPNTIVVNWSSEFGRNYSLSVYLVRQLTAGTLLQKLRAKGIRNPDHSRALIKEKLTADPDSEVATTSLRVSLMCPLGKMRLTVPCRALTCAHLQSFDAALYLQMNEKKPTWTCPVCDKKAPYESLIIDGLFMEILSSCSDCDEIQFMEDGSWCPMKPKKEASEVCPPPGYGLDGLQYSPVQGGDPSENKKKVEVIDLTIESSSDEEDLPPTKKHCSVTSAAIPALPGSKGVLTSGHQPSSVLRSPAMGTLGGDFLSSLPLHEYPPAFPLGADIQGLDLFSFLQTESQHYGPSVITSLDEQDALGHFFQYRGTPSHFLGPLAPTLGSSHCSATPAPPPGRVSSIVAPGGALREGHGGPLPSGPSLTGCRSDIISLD
Kind of test: pull-down; purified GST or GST-PIAS3 incubated with purified His-METTL10 in 25 mM Tris-HCl pH 8.0, 150 mM NaCl, 4 °C overnight; Glutathione Agarose Resin; eluted with 10 mM reduced glutathione. As to conditions: both partners purified.

B1: His-METTL10 (enzyme)
chain: not shown
notes: METTL10 (EEF1AKMT2); also called bacterially expressed METTL10; source: E. coli BL21, purified (Ni-NTA resin)
As for B1, the binding result is reported as “binds”.
